The record followed here is paper PMC8511506 (2021).

The target of the experiment is Ubiquitin (UniProt P0CG47 1-76). Kind of experiment: ITC. On the technique in general: In ITC the heat of successive injections is recorded.

The Kd is the concentration at which binding is half-saturated. A high value points to weaker binding.

B1: CYLD CAP-Gly2 (aa 226-313) (domain or fragment)
chain: ELPPLEINSRVSLKVGETIESGTVIFCDVLPGKESLGYFVGVDMDNPIGNWDGRFDGVQLCSFACVESTILLHINDIIPALSESVTQE
In turn, B1 came in with a dissociation constant Kd of 136 µM.

B2: CYLD CAP-Gly3 (aa 460-582) (domain or fragment)
chain: LAMPPGNSHGLEVGSLAEVKENPPFYGVIRWIGQPPGLNEVLAGLELEDECAGCTDGTFRGTRYFTCALKKALFVKLKSCRPDSRFASLQPVSNQIERCNSLAFGGYLSEVVEENTPPKMEKE
The molecule B2 registered a Kd of 319 µM.
